Source: US8323941B2, “Histone demethylation mediated by the nuclear amine oxidase homolog LSD1” (President and Fellows of Harvard College, priority 2004, dated 2012)
Values belong to the compound of their own block, whether it stands above or below them.

Key:
LSD1 [1] = target: LSD1 (Homo sapiens, UniProt O60341); assay: LSD1 demethylation assay on nucleosomal substrates (mononucleosomes), Western blotting; format: biochemical; design: Full length (1-851aa) and C-terminal deleted (1-427 aa) human LSD1 cDNAs; 6xHis (N); made in house; host or cells: bacteria; conditions: for stimulation of LSD1 demethylation activity: CoREST deletion mutants
Method: Preparation of mononucleosome. Mononucleosome was made according to a standard protocol (Tagami et al., 2004; Utley et al., 1996). Briefly, nuclear pellet from both TSA-treated or non-treated HeLa cells was homogenized for 60 times with type A pestle to obtain oligo-nucleosomes. The oligo-nucleosomes were then digested with micrococcal nuclease (40 units/mL) for 10 mins at 30° C. The nuclease is inactivated by 5 mM EDTA. Digested materials were spun at 14000 rpm for 3 mins. Resulting supernatant was spun again for additional 3 mins at the same speed. Supernatant from the second spin was subject to 10-25% glycerol gradient sedimentation. The monocleosome-containing fractions were identified by examining aliquots of fractions (treated with proteinase K) on DNA agarose gel. An aliquot of TSA-treated or non TSA-treated mononucleosome, a kind gift from Dr. Yoshihiro Nakatani's Lab in Dana Faber Cancer Institute, Harvard Medical School (Tagami et al., 2004), was used here as a control for the quality of mononucleosome made in our lab.
Demethylation assay. LSD1 demethylation activity on free histone or nucleosomal histone was carried out as previously reported (Shi et al., 2004). Briefly, bulk histones or mononucleosomes were incubated with purified His-LSD1 with or without purified His-CoREST, His-CoREST mutants, His-BHC80 and/or GST-HDAC1 in the histone demethylase activity (HDM) assay buffer (50 mM Tris pH8.5, 50 mM KCl, 5 mM MgCl, 0.5% BSA and 5% glycerol) from 10 mins up to 1 hour at 37° C. The demethylase activity of LSD1 under various conditions was evaluated by Western blotting using K4-H3 methylation-specific antibodies.

LSD1 target genes = assay: RT-PCR of LSD1 target genes / mRNA in HeLa cells; format: cell-based, human; conditions: TSA treatment
Description: RT-PCR. Total RNA samples were isolated from 2×10^6 cells by Trizol reagent (Sigma). After DNase treatment, the RNA samples were purified by phenol-chloroform extraction and ethanol precipitation. 38 PCR cycles were used for SCN1A, SCN2A, SCN3A and M4 AchR and 28 PCR cycles for GAPDH. Primers used in RT-PCR were as follows: SCN1A up (5′-[…]-3′; SEQ ID NO: 1), down (5′-[…]-3′; SEQ ID NO: 2); SCN2A up (5′-[…]-3′; SEQ ID NO: 3), down (5′-[…]-3′; SEQ ID NO: 4) SCN3A up (5′-[…]-3′; SEQ ID NO: 5), down (5′-[…]-3′; SEQ ID NO: 6); p57^KIP2 up (5′-[…]-3′; SEQ ID NO: 7), down (5′-[…]-3′; SEQ ID NO: 8); GAPDH up (5′-[…]-3′; SEQ ID NO: 9), down (5′-[…]-3′; SEQ ID NO: 10).
(§1) Knockdown LSD, CoREST and Proteasome inhibitor (PI) treatment. Stable cell lines which express mutant GFP-shRNA, CtBP-shRNA, LSD1-shRNA or CoREST-shRNA were generated as previously described (Shi et al., 2003; Sui et al., 2002). To prevent proteasome-mediated protein degradation, the cells were treated with ZL3VS at final concentration 10 μM for 24 hours in culture then harvested. The protein and mRNA levels of the shRNA-knockdown cells with or without PI treatment were estimated by Western blotting and RT-PCR as previously described (Shi et al., 2004).

SCN2A = conditions: Rat-1 fibroblast cells, TSA treatment; cited from earlier work
HIS-LSD1 [2] = target: T1, HIS-LSD1 (Homo sapiens, UniProt O60341); assay: Demethylase assay on histone H3 peptides, Western blotting with methyl-specific antibodies; format: biochemical; design: Full length (1-851aa) and C-terminal deleted (1-427 aa) human LSD1 cDNAs; 6xHis (N); made in house; host or cells: bacteria (IPTG induction); conditions: 1 μg LSD1, 1 nmole peptide; modification-specific antibody
Description: LSD1 is a flavin-containing protein based on its ability to bind FAD ((Humphrey et al., 2001), and data not shown). Its sequence homology with amine oxidases predicts that LSD1 may catalyze oxidation reactions of biogenic amines including monoamine, polyamines or N-methylated protein substrates (such as histones) (Bannister et al., 2002). Amine oxidation catalyzed by flavin-containing amine oxidase is characterized by oxidative cleavage of the a-carbon bond of the substrate to form an imine intermiediate, which, in turn, is hydrolyzed to form an aldehyde and amine via a non-enzymatic process. In a complete catalytic cycle, the cofactor FAD is reduced to FADH2 and then is likely to be re-oxidized by oxygen to produce hydrogen peroxide (Binda et al., 2002). […] The HIS-LSD1 proteins were incubated with histone H3 peptides carrying dimethylated K4 (diMeK4H3) or K9 (diMeK9H3) and the methylation status was determined using a diMeK4H3 or diMeK9H3 specific antibody, respectively. […]
Demethylase assay. […] The reaction mixture was analyzed by SDS-PAGE/Western blotting using methyl-specific antibodies, or by formaldehyde formation assay to examine the removal and conversion of the methyl group to formaldehyde, or by mass spectrometry to identify the demethylated peptide.

HIS-LSD1 [3] = target: T1, HIS-LSD1; assay: Demethylation-FDH coupled spectrophotometric assay (formaldehyde formation); format: biochemical; design: Full length (1-851aa) and C-terminal deleted (1-427 aa) human LSD1 cDNAs; 6xHis (N); made in house; conditions: for formaldehyde production (absorbance at OD 340 nm): peptide used as substrate of HIS-LSD1
Description: We used a third independent method to investigate the possibility that LSD1 is a histone demethylase. […] To determine whether formaldehyde was produced in LSD1-mediated enzymatic reactions, we first used the formaldehyde dehydrogenase (FDH) assay to detect the presence of formaldehyde (Lizcano et al., 2000). This assay employs formaldehyde dehydrogenase to convert formaldehyde to formic acid using NAD^+ as the electron acceptor, whose reduction to NADH can be spectrophotometrically measured at OD 340 nm. Thus, when the demethylation reaction is coupled with the FDH assay, the enzymatic activity of LSD1 and reaction kinetics can be determined by measuring the production of NADH. A standard curve was first generated using purified FDH (EC 1.2.1.46), NAD^+ and different concentrations of formaldehyde ranging from 1 μM to 10 mM, within which a linear relationship was found between the production of NADH and the range of formaldehyde used in the assay. Subsequently, the coupled demethylation-FDH assays were carried out within this linear range and were initiated with the addition of the diMeK4H3 substrates. The continuous production of the formaldehyde as the demethylation proceeded was monitored by OD measurement at 340 nm at different time points. […] We next used the demethylation-FDH coupled spectrophotometric assay as another independent means to investigate the substrate specificity of LSD1.
Formaldehyde Dehydrogenase (FDH) assay. Formaldehyde formation was continuously monitored by a coupled spectrophotometric assay (Lizcano et al., 2000) using formaldehyde dehydrogenase (FDH). […] The absorbance at 340 nm (ε340=6.22 mM^−1 cm^−1 for NADH) was measured at each time point in a 0.5 min interval using Beckman DU640 spectrophotometer. The OD 340 nm absorbance at the moment of the substrate addition was considered as 0 and this was used as the 0 min time point. Over a 10 min period, a kinetic software program automatically recorded the absorbance at each time point. The data were analyzed using the Excel program. […]

GST-LSD1 = target: T2, GST-LSD1 (Homo sapiens, UniProt O60341); assay: GST pulldown of HIS-tagged CoREST and mutants; format: binding; conditions: Coomassie Blue staining
T2 construct: made in house; host or cells: bacteria (inferred from 'similar procedure' to the His-tagged proteins)
Method: To identify domains of CoREST that are involved in physical interactions with LSD1, GST-LSD1 or GST was incubated with bacterially purified, HIS-tagged CoREST and its mutant derivatives. […] This places the putative LSD1-binding domain within the C-terminal functional domain of CoREST, somewhere between aa 293-381 of CoREST. […] We therefore speculate that the SANT2 domain may be involved in mediate binding to the nucleosomal substrate. Taken together, these findings are consistent with the idea that CoREST functions as a bridging protein. The weak stimulatory activity of the N-terminal CoREST (del1, aa 1-293) remains unclear at the present time.
GST and GSTLSD1 plamsids were kind gifts from Dr. Tadashi Baba's Lab in Japan (Iwase et al., 2004). Expression and purification of GST and GSTLSD1 proteins were done using similar procedure as outlined for purification of his-tagged recombinant proteins. For GST-bead pulldown experiment, 2 μg of each purified his-tagged wt or del CoREST proteins were incubated with 5 μg of bound GST and GSTLSD1 proteins at 4° C. for 4 hrs in a binding buffer (50 mM Tris, pH 8.0, 300 mM NaCl, 1 mM DTT, 0.5 mM EDTA and 0.1% NP-40). The beads were washed 3 times in the binding buffer, resuspended in 2×SDS protein sample buffer, boiled for 5 mins and loaded onto 15% SDS PAGE gel. The gel was then stained with Coomassie Blue.

LSD1 [4] = assay: LSD1 protein level in knockdown cells (immunostaining, Western blotting); format: cell-based, human; conditions: CoREST shRNA treated cells; 10 μM for 24 hours
Method: as §1

difference in CoREST/LSD1-mediated demethylation, untreated vs TSA-treated nucleosomes (LSD1 [1]; hyperacetylated nucleosomes isolated from TSA-treated HeLa cells, less susceptible): approximately 4 fold
Compound: CC(/C=C/C(=O)NO)=C\[C@@H](C)C(=O)c1ccc(N(C)C)cc1 [TSA, Trichostatin A]
expression of LSD1 target genes SCNA2 and SCNA3 (LSD1 target genes): de-repression
SCN2A expression (SCN2A): unaffected

formaldehyde production (absorbance at OD 340 nm) (HIS-LSD1 [3]): not
Compound: diMeK9H3: Synthetic histone H3 peptide (1-21aa) carrying dimethylated K9
dimethylation level of H3 peptide after incubation with LSD1 (HIS-LSD1 [2]): failed to reduce the dimethylation level at K9

stimulation of LSD1 demethylation activity (LSD1 [1]): fail to stimulate its activity
binding to LSD1 (GST-LSD1): bound LSD1
Compound: del 3: CoREST deletion mutant aa 105-381

stimulation of LSD1 demethylation activity (LSD1 [1]): fail to stimulate its activity
binding to LSD1 (GST-LSD1): bound LSD1
Compound: del 5: CoREST deletion mutant aa 293-381

formaldehyde production (absorbance at OD 340 nm) (HIS-LSD1 [3]): robust increase
Km (HIS-LSD1 [3]; purified HIS-LSD1, Lineweaver-Burk transformation, read-out: apparent Km for the diMeK4H3 substrates): ~30 µM
Compound: diMeK4H3: Synthetic histone H3 peptide (1-21 aa) carrying dimethylated K4
dimethylation level of H3 peptide after incubation with LSD1 (HIS-LSD1 [2]): effectively reduced dimethylation level at K4

effect of added protein on ability of recombinant LSD1 to demethylate nucleosomal substrates (LSD1 [1]; bacterially purified protein added to recombinant LSD1): no effect
Compound: HDAC1: Bacterially purified histone deacetylase 1

Compound: CC(C)C[C@@H](/C=C/S(C)(=O)=O)NC(=O)[C@H](CC(C)C)NC(=O)[C@H](CC(C)C)NC(=O)OCc1ccccc1 [ZL3VS]
LSD1 steady state level (LSD1 [4]): restored the LSD1 steady state level
